Results: US10920254B2, “Methods and materials for producing 5 and 7-carbon monomers” (INVISTA North America S.á.r.l., priority 2015, dated 2021)
One block for each molecule: values may come before it.

Tests used:
Assay type in all cases: biochemical
[1] = carboxylate reductase enzyme activity assay (pimelate to pimelate semialdehyde), NADPH consumption at 340 nm; conditions: purified enzyme enhanced by gene product of sfp; 2 mM pimelate, 1 mM ATP, 1 mM NADPH, pH 7.5, room temperature, 20 min; FIG. 8
Method: A nucleotide sequence encoding a HIS-tag was added to the nucleic acid sequences from Segniliparus rugosus and Segniliparus rotundus that encode the carboxylate reductases of SEQ ID NOs: 4 (EFV11917.1) and 6 (ADG98140.1), respectively (see FIG. 6C and FIG. 6E), such that N-terminal HIS tagged carboxylate reductases could be produced. Each of the modified genes was cloned into a pET Duet expression vector along with a sfp gene encoding a HIS-tagged phosphopantetheine transferase from Bacillus subtilis, both under the T7 promoter. Each expression vector was transformed into a BL21[DE3] E. coli host and the resulting recombinant E. coli strains were cultivated at 37° C. in a 250 mL shake flask culture containing 50 mL LB media and antibiotic selection pressure, with shaking at 230 rpm. Each culture was induced overnight at 37° C. using an auto-induction media.
The pellet from each induced shake flask culture was harvested via centrifugation. Each pellet was resuspended and lysed via sonication, and the cell debris was separated from the supernatant via centrifugation. […]
Enzyme activity assays (i.e., from pimelate to pimelate semialdehyde) were performed in triplicate in a buffer composed of a final concentration of 50 mM HEPES buffer (pH=7.5), 2 mM pimelate, 10 mM MgCl2, 1 mM ATP, and 1 mM NADPH. […] The consumption of NADPH was monitored by absorbance at 340 nm. […]

[2] = carboxylate reductase enzyme activity assay (N7-acetyl-7-aminoheptanoate to N7-acetyl-7-aminoheptanal), NADPH consumption at 340 nm; conditions: purified enzyme enhanced by gene product of sfp; 2 mM N7-acetyl-7-aminoheptanoate, 1 mM ATP, 1 mM NADPH, pH 7.5, room temperature, 20 min; FIG. 10
Method: The activity of each of the N-terminal His-tagged carboxylate reductases of SEQ ID NOs: 3, 5, and 6 (see Examples 2 and 3, and FIG. 6B, FIGS. 6D-6E) for converting N7-acetyl-7-aminoheptanoate to N7-acetyl-7-aminoheptanal was assayed in triplicate in a buffer composed of a final concentration of 50 mM HEPES buffer (pH=7.5), 2 mM N7-acetyl-7-aminoheptanoate, 10 mM MgCl2, 1 mM ATP, and 1 mM NADPH. The assays were initiated by adding purified carboxylate reductase and phosphopantetheine transferase or the empty vector control to the assay buffer containing the N7-acetyl-7-aminoheptanoate then incubated at room temperature for 20 min. The consumption of NADPH was monitored by absorbance at 340 nm.

[3] = carboxylate reductase enzyme activity assay (pimelate semialdehyde to heptanedial), NADPH consumption at 340 nm; conditions: purified enzyme enhanced by gene product of sfp; 2 mM pimelate semialdehyde, 1 mM ATP, 1 mM NADPH, pH 7.5, room temperature, 20 min; FIG. 11
Method: The N-terminal His-tagged carboxylate reductase of SEQ ID NO: 6 (see Example 3 and FIG. 6E) was assayed using pimelate semialdehyde as substrate. The enzyme activity assay was performed in triplicate in a buffer composed of a final concentration of 50 mM HEPES buffer (pH=7.5), 2 mM pimelate semialdehyde, 10 mM MgCl2, 1 mM ATP, and 1 mM NADPH. The enzyme activity assay reaction was initiated by adding purified carboxylate reductase and phosphopantetheine transferase or the empty vector control to the assay buffer containing the pimelate semialdehyde and then incubated at room temperature for 20 min. The consumption of NADPH was monitored by absorbance at 340 nm.

acceptance of pimelate as substrate (NADPH consumption), confirmed against the empty vector control [1]: accepted pimelate as substrate
B1: SEQ ID NO: 6: Segniliparus rotundus carboxylate reductase, N-terminal HIS tagged (protein, listed as Segniliparus rotundus)
chain: MTQSHTQGPQASAAHSRLARRAAELLATDPQAAATLPDPEVVRQATRPGLRLAERVDAILSGYADRPALGQRSFQTVKDPITGRSSVELLPTFDTITYRELRERATAIASDLAHHPQAPAKPGDFLASIGFISVDYVAIDIAGVFAGLTAVPLQTGATLATLTAITAETAPTLFAASIEHLPTAVDAVLATPSVRRLLVFDYRAGSDEDREAVEAAKRKIADAGSSVLVDVLDEVIARGKSAPKAPLPPATDAGDDSLSLLIYTSGSTGTPKGAMYPERNVAHFWGGVWAAAFDEDAAPPVPAINITFLPLSHVASRLSLMPTLARGGLMHFVAKSDLSTLFEDLKLARPTNLFLVPRVVEMLYQHYQSELDRRGVQDGTREAEAVKDDLRTGLLGGRILTAGFGSAPLSAELAGFIESLLQIHLVDGYGSTEAGPVWRDGYLVKPPVTDYKLIDVPELGYFSTDSPHPRGELAIKTQTILPGYYKRPETTAEVFDEDGFYLTGDVVAQIGPEQFAYVDRRKNVLKLSQGEFVTLAKLEAAYSSSPLVRQLFVYGSSERSYLLAVIVPTPDALKKFGVGEAAKAALGESLQKIARDEGLQSYEVPRDFIIETDPFTVENGLLSDARKSLRPKLKEHYGERLEAMYKELADGQANELRDIRRGVQQRPTLETVRRAAAAMLGASAAEIKPDAHFTDLGGDSLSALTFSNFLHDLFEVDVPVGVIVSAANTLGSVAEHIDAQLAGGRARPTFATVHGKGSTTIKASDLTLDKFIDEQTLEAAKHLPKPADPPRTVLLTGANGWLGRFLALEWLERLAPAGGKLITIVRGKDAAQAKARLDAAYESGDPKLAGHYQDLAATTLEVLAGDFSEPRLGLDEATWNRLADEVDFISHPGALVNHVLPYNQLFGPNVAGVAEIIKLAITTRIKPVTYLSTVAVAAGVEPSALDEDGDIRTVSAERSVDEGYANGYGNSKWGGEVLLREAHDRTGLPVRVFRSDMILAHQKYTGQVNATDQFTRLVQSLLATGLAPKSFYELDAQGNRQRAHYDGIPVDFTAESITTLGGDGLEGYRSYNVFNPHRDGVGLDEFVDWLIEAGHPITRIDDYDQWLSRFETSLRGLPESKRQASVLPLLHAFARPGPAVDGSPFRNTVFRTDVQKAKIGAEHDIPHLGKALVLKYADDIKQLGLL
modifications: N-terminal His tag
notes: Segniliparus rotundus carboxylate reductase, N-terminal HIS tagged
acceptance of N7-acetyl-7-aminoheptanoate as substrate (NADPH consumption), confirmed against the empty vector control [2]: accepted N7-acetyl-7-aminoheptanoate as substrate
acceptance of pimelate semialdehyde as substrate (NADPH consumption), confirmed against the empty vector control [3]: accepted pimelate semialdehyde as substrate

acceptance of pimelate as substrate (NADPH consumption), confirmed against the empty vector control [1]: accepted pimelate as substrate
B2: SEQ ID NO: 4: Segniliparus rugosus carboxylate reductase, N-terminal HIS tagged (protein, listed as Segniliparus rugosus)
chain: MGDGEERAKRFFQRIGELSATDPQFAAAAPDPAVVEAVSDPSLSFTRYLDTLMRGYAERPALAHRVGAGYETISYGELWARVGAIAAAWQADGLAPGDFVATVGFTSPDYVAVDLAAARSGLVSVPLQAGASLAQLVGILEETEPKVLAASASSLEGAVACALAAPSVQRLVVFDLRGPDASESAADERRGALADAEEQLARAGRAVVVETLADLAARGEALPEAPLFEPAEGEDPLALLIYTSGSTGAPKGAMYSQRLVSQLWGRTPVVPGMPNISLHYMPLSHSYGRAVLAGALSAGGTAHFTANSDLSTLFEDIALARPTFLALVPRVCEMLFQESQRGQDVAELRERVLGGRLLVAVCGSAPLSPEMRAFMEEVLGFPLLDGYGSTEALGVMRNGIIQRPPVIDYKLVDVPELGYRTTDKPYPRGELCIRSTSLISGYYKRPEITAEVFDAQGYYKTGDVMAEIAPDHLVYVDRSKNVLKLSQGEFVAVAKLEAAYGTSPYVKQIFVYGNSERSFLLAVVVPNAEVLGARDQEEAKPLIAASLQKIAKEAGLQSYEVPRDFLIETEPFTTQNGLLSEVGKLLRPKLKARYGEALEARYDEIAHGQADELRALRDGAGQRPVVETVVRAAVAISGSEGAEVGPEANFADLGGDSLSALSLANLLHDVFEVEVPVRIIIGPTASLAGIAKHIEAERAGASAPTAASVHGAGATRIRASELTLEKFLPEDLLAAAKGLPAADQVRTVLLTGANGWLGRFLALEQLERLARSGQDGGKLICLVRGKDAAAARRRIEETLGTDPALAARFAELAEGRLEVVPGDVGEPKFGLDDAAWDRLAEEVDVIVHPAALVNHVLPYHQLFGPNVVGTAEIIRLAITAKRKPVTYLSTVAVAAGVEPSSFEEDGDIRAVVPERPLGDGYANGYGNSKWAGEVLLREAHELVGLPVAVFRSDMILAHTRYTGQLNVPDQFTRLVLSLLATGIAPKSFYQQGAAGERQRAHYDGIPVDFTAEAITTLGAEPSWFDGGAGFRSFDVFNPHHDGVGLDEFVDWLIEAGHPISRIDDHKEWFARFETAVRGLPEAQRQHSLLPLLRAYSFPHPPVDGSVYPTGKFQGAVKAAQVGSDHDVPHLGKALIVKYADDLKALGLL
modifications: N-terminal His tag
notes: Segniliparus rugosus carboxylate reductase, N-terminal HIS tagged

B3: SEQ ID NO: 5: Mycobacterium massiliense carboxylate reductase, N-terminal HIS tagged (protein, listed as Mycobacterium abscessus)
chain: MTNETNPQQEQLSRRIESLRESDPQFRAAQPDPAVAEQVLRPGLHLSEAIAALMTGYAERPALGERARELVIDQDGRTTLRLLPRFDTTTYGELWSRTTSVAAAWHHDATHPVKAGDLVATLGFTSIDYTVLDLAIMILGGVAVPLQTSAPASQWTTILAEAEPNTLAVSIELIGAAMESVRATPSIKQVVVFDYTPEVDDQREAFEAASTQLAGTGIALETLDAVIARGAALPAAPLYAPSAGDDPLALLIYTSGSTGAPKGAMHSENIVRRWWIREDVMAGTENLPMIGLNFMPMSHIMGRGTLTSTLSTGGTGYFAASSDMSTLFEDMELIRPTALALVPRVCDMVFQRFQTEVDRRLASGDTASAEAVAAEVKADIRDNLFGGRVSAVMVGSAPLSEELGEFIESCFELNLTDGYGSTEAGMVFRDGIVQRPPVIDYKLVDVPELGYFSTDKPHPRGELLLKTDGMFLGYYKRPEVTASVFDADGFYMTGDIVAELAHDNIEIIDRRNNVLKLSQGEFVAVATLEAEYANSPVVHQIYVYGSSERSYLLAVVVPTPEAVAAAKGDAAALKTTIADSLQDIAKEIQLQSYEVPRDFIIEPQPFTQGNGLLTGIAKLARPNLKAHYGPRLEQMYAEIAEQQAAELRALHGVDPDKPALETVLKAAQALLGVSSAELAADAHFTDLGGDSLSALSFSDLLRDIFAVEVPVGVIVSAANDLGGVAKFVDEQRHSGGTRPTAETVHGAGHTEIRAADLTLDKFIDEATLHAAPSLPKAAGIPHTVLLTGSNGYLGHYLALEWLERLDKTDGKLIVIVRGKNAEAAYGRLEEAFDTGDTELLAHFRSLADKHLEVLAGDIGDPNLGLDADTWQRLADTVDVIVHPAALVNHVLPYNQLFGPNVVGTAEIIKLAITTKIKPVTYLSTVAVAAYVDPTTFDEESDIRLISAVRPIDDGYANGYGNAKWAGEVLLREAHDLCGLPVAVFRSDMILAHSRYTGQLNVPDQFTRLILSLIATGIAPGSFYQAQTTGERPLAHYDGLPGDFTAEAITTLGTQVPEGSEGFVTYDCVNPHADGISLDNFVDWLIEAGYPIARIDNYTEWFTRFDTAIRGLSEKQKQHSLLPLLHAFEQPSAAENHGVVPAKRFQHAVQAAGIGPVGQDGTTDIPHLSRRLIVKYAKDLEQLGLL
modifications: N-terminal His tag; Mycobacterium abscessus subsp. bolletii
notes: Mycobacterium massiliense carboxylate reductase, N-terminal HIS tagged
acceptance of N7-acetyl-7-aminoheptanoate as substrate (NADPH consumption), confirmed against the empty vector control [2]: accepted N7-acetyl-7-aminoheptanoate as substrate
